# B1: CPXM2 (parent)
# chain: EILGCPLPDPNNYYHRRNEMTTTD
# B2: SPACA3 (parent)
# chain: FTSGFNAAALDYEADGSTNNGIFQ
# Variants of: B1
# Experiment: protein stability index of a GFP-peptide fusion (GPS, HEK-293T) (PSI 1-6); higher = more stable
# Conditions: c terminus: a fixed tail appended
# 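Also: lentivirally expressed fusions sorted by FACS into six bins by GFP to DsRed ratio, PSI derived from sequencing read proportions per bin multiplied by bin number.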
row,Variant,protein stability index
1,H15S,3.56
2,H15L,3.21
3,H15G,3.88
4,H15N,3.68
5,H15W,2.91
6,H15V,3.1
7,H15Q,3.96
8,H15T,3.76
9,H15K,3.76
10,H15Y,3.16
11,H15I,3.52
12,H15P,3.64
13,H15R,3.31
14,H15M,3.23
15,M20S,3.98
16,M20H,3.69
17,M20A,3.99
18,M20D,4.35
19,M20F,2.98
20,M20N,3.92
21,M20T,4.6
22,M20L,2.95
23,M20V,3.7

row,Variant,protein stability index
1,M20C,3.69
2,M20E,4.59
3,M20Y,2.46
4,M20I,3.69
5,M20P,3.92
6,M20W,3.12
7,M20G,4.6
8,M20Q,4.42
9,M20K,3.53
10,M20R,3.57
11,R16A,3.84
12,R16Y,2.83
13,R16N,3.82
14,R16T,3.48
15,R16F,2.71
16,R16V,3.19
17,R16G,4
18,R16E,3.94
19,R16Q,4.03
20,R16W,2.76
21,R16K,3.52
22,R16L,3.28
23,R16H,3.56

row,Variant,protein stability index
1,R16C,3.15
2,R16D,3.98
3,R16P,3.55
4,R16I,3.21
5,R16M,3.48
6,R16S,4.14
7,T21W,1.65
8,T21L,2.97
9,T21C,2.92
10,T21A,3.6
11,T21Q,3.6
12,T21D,4.25
13,T21P,3.08
14,T21N,3.45
15,T21E,4.27
16,T21M,3.23
17,T21S,3.52
18,T21H,2.91
19,T21G,3.55
20,T21I,2.77
21,T21K,4.37
22,T21F,2.77
23,T21Y,2.81

row,Variant,protein stability index
1,T21R,3.05
2,T22R,3
3,T22L,2.69
4,T22G,3.56
5,T22F,2.77
6,T22Y,3.31
7,T22A,3.15
8,T22I,2.81
9,T22H,3.51
10,T22M,3.28
11,T22K,3.54
12,T22S,3.48
13,T22V,3.38
14,T22W,1.85
15,T22P,3.22
16,T22E,4.39
17,T22Q,4.18
18,T22C,3.15
19,T22N,3.47
20,T22D,4.09
21,N18Y,2.67
22,N18G,3.77
23,N18R,3.19

row,Variant,protein stability index
1,N18A,3.3
2,N18T,3.6
3,N18H,3.37
4,N18M,2.91
5,N18F,2.41
6,N18C,3.59
7,N18W,2.16
8,N18S,3.26
9,N18L,2.51
10,N18I,2.79
11,N18E,4.01
12,N18D,4.23
13,N18Q,3.7
14,N18K,3.57
15,N18P,3.21
16,N18V,2.77
17,E19T,2.95
18,E19R,3.16
19,E19G,3.59
20,E19V,2.71
21,E19L,2.22
22,E19W,2.09
23,E19I,2.19

row,Variant,protein stability index
1,E19H,3.1
2,E19M,2.48
3,E19D,3.62
4,E19N,3.3
5,E19C,2.8
6,E19S,3.46
7,E19Q,3.31
8,E19P,2.86
9,E19F,2.62
10,E19K,2.83
11,E19Y,2.6
12,E19A,2.89
13,R17N,4.04
14,R17D,4.64
15,R17Y,2.85
16,R17S,3.88
17,R17Q,4.02
18,R17P,4.15
19,R17C,2.98
20,R17K,3.62
21,R17I,3.35
22,R17L,2.7
23,R17E,4.43

row,Variant,protein stability index
1,R17G,3.79
2,R17F,2.48
3,R17V,3.22
4,R17T,4.19
5,R17A,3.78
6,R17W,2.63
7,R17H,3.3
8,R17M,3.8
9,D24K,3.65
10,D24R,3.07
11,D24M,2.28
12,D24E,3.53
13,D24S,3.27
14,D24F,1.47
15,D24N,3.07
16,D24T,2.82
17,D24W,1.86
18,D24I,1.82
19,D24A,2.61
20,D24L,2.46
21,D24C,2.86
22,D24H,2.76
23,D24P,2.49

row,Variant,protein stability index
1,D24Q,2.91
2,D24Y,2.29
3,D24V,3.02
4,D24G,2.76
5,T23I,3.55
6,T23G,3.29
7,T23K,3.46
8,T23V,2.85
9,T23S,3.39
10,T23N,3.48
11,T23W,2.48
12,T23E,4.3
13,T23A,3.65
14,T23M,2.78
15,T23F,2.43
16,T23L,3.07
17,T23P,3.67
18,T23R,3.37
19,T23Q,3.54
20,T23C,3.8
21,T23H,3.6
22,T23Y,3.13
23,T23D,3.85

# Variants of: B2
# Experiment: as above
# Conditions: c terminus: a fixed tail appended
row,Variant,protein stability index
1,A7K,1.83
2,A7I,2.13
3,A7N,1.73
4,A7Y,2.31
5,A7S,1.92
6,A7P,1.82
7,A7R,2
8,A7C,2.08
9,A7E,2.8
10,A7D,2.62
11,A7M,2.14
12,A7F,3.08
13,A7H,2.2
14,A7V,2.35
15,A7W,2.39
16,A7G,2.13
17,A7L,2.88
18,A7Q,2.02
19,A7T,1.83
20,A8T,1.98
21,A8M,1.64
22,A8Q,1.84
23,A8F,2.73
24,A8G,1.82
25,A8D,2.98

row,Variant,protein stability index
1,A8H,1.85
2,A8E,2.35
3,A8L,1.73
4,A8N,2.35
5,A8C,1.77
6,A8V,2.4
7,A8K,2.23
8,A8R,2.29
9,A8P,2.13
10,A8S,1.99
11,A8I,2.34
12,N6S,1.85
13,N6Y,2.82
14,N6T,1.61
15,N6C,3
16,N6V,2.08
17,N6E,2.88
18,N6H,2.38
19,N6P,1.61
20,N6I,1.43
21,N6W,3.02
22,N6R,1.41
23,N6F,3.46
24,N6Q,1.94
25,N6M,3.01

row,Variant,protein stability index
1,N6G,1.83
2,N6K,2.45
3,N6A,1.84
4,N6D,2.99
5,N6L,2.78
6,G4R,1.87
7,G4Q,2.43
8,G4P,2.78
9,G4W,2.98
10,G4A,1.82
11,G4S,2.38
12,G4E,2.22
13,G4H,2.59
14,G4K,1.98
15,G4I,2.15
16,G4M,1.74
17,G4T,2.42
18,G4D,2.79
19,G4L,1.7
20,G4C,1.94
21,G4Y,1.68
22,G4N,2.3
23,G4F,2.13
24,G4V,2.21
25,T2Q,2.26

row,Variant,protein stability index
1,T2P,2.07
2,T2A,2.44
3,T2S,2.88
4,T2R,2.71
5,T2I,2.02
6,T2M,3.05
7,T2F,3.13
8,T2Y,2.75
9,T2G,3.11
10,T2C,2.08
11,T2K,3.62
12,T2E,4.66
13,T2W,2.91
14,T2D,4.32
15,T2V,2.31
16,T2L,2.78
17,T2H,2.02
18,T2N,3.81
19,F5E,4.38
20,F5P,3.81
21,F5I,3.14
22,F5G,3.63
23,F5L,3.11
24,F5H,3.55
25,F5S,4.18

row,Variant,protein stability index
1,F5D,4.79
2,F5R,3.25
3,F5W,3.06
4,F5V,4.01
5,F5M,3.25
6,F5C,3.03
7,F5N,4.47
8,F5Q,4.12
9,F5T,4.06
10,F5A,4.07
11,F5Y,2.18
12,F5K,3.8
13,S3F,2.12
14,S3W,2.26
15,S3V,2.07
16,S3P,2.29
17,S3N,2.56
18,S3A,2.37
19,S3T,1.84
20,S3H,2.14
21,S3Y,2.03
22,S3E,2
23,S3R,2.46
24,S3K,2.97
25,S3M,2.52

row,Variant,protein stability index
1,S3I,1.76
2,S3G,4.05
3,S3L,2.2
4,S3D,2.55
5,S3C,1.65
6,S3Q,2.19
7,F1T,4.63
8,F1A,4.21
9,F1G,4.61
10,F1D,5.15
11,F1V,4.46
12,F1L,4.01
13,F1P,4.29
14,F1Y,2.24
15,F1E,5.11
16,F1N,4.94
17,F1H,4.48
18,F1K,4.54
19,F1S,4.64
20,F1W,3.6
21,F1R,4.61
22,F1M,3.99
23,F1I,3.95
24,F1Q,4.24
25,F1C,3.44
